This is an account of results in paper PMC3936728.

The target of data set [1] is T1, MepR (crystallization) (Staphylococcus aureus, UniProt Q5Y812 1-139).
T1 sequence: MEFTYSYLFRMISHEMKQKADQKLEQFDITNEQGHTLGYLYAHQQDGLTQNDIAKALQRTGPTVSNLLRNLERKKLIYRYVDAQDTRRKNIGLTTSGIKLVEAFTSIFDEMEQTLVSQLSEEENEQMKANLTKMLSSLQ
The experiment in a line: crystal structure.

Data set [2] deals with T2, MepR WT (Staphylococcus aureus, UniProt Q5Y812 1-139).
T2 sequence: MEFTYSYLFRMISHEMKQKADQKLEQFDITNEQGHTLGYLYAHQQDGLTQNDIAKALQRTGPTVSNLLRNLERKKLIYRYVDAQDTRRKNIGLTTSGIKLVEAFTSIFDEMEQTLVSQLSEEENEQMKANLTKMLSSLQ
The experiment in a line: ITC. For orientation: In ITC the heat of successive injections is recorded.

B1: 24 bp palindromic mepR operator (dsDNA)
DNA 1: ATTTAGTTAGATATCTAACTAAAT
DNA 2: ATTTAGTTAGATATCTAACTAAAT
Take B1: the binding result in data set [1] is listed as “binds”.

B2: 14 bp mepR site (dsDNA)
DNA 1: GTTAGACATCTAAC
DNA 2: GTTAGATGTCTAAC
As for B2, the binding result in data set [2] is reported as “no binding”.

B3: 27 bp mepR, scrambled recognition helix region (dsDNA)
DNA 1: TATTTACTATGTGTATCTAGGAAATGG
DNA 2: CCATTTCCTAGATACACATAGTAAATA
B3: the binding result in data set [2] was “no binding”.
